Measured values taken from patent US8614369B2, “Enzymes involved in triterpene synthesis” (Plant Bioscience Limited, priority 2007, dated 2013).

Experiment: Activity of AsGT2 towards salicylate (radioactive TLC assay and LC-MS assay)
Format: biochemical
Set-up: key: A “+” denotes activity
Settings: acceptor substrate salicylate; sugar donor L-arabinose; recombinant AsGT2 expressed in E. coli
Description: Radioactive assays with a complex acceptor substrate were used to detect low level activity with pure or enriched substrates. The assays contained 4 μl ^14C-UDP-glucose, 25 μl 50 mM potassium phosphate buffer pH 7.6, 0.25 μl 100 mM acceptor substrate in DMSO, 5 μl of the dialyzed protein preparation, and 3 μl 10 mM DTT. The reaction proceeded at 28 degrees Celsius for 2.5 hours shaking gently before stopping by the addition of 50 μl chloroform:methanol (2:1). The aqueous phase was extracted three more times with chloroform methanol and the solvent phases were pooled. The extracts were dried down at 60 degrees Celsius and resuspended in 40 μl of chloroform:methanol. The aqueous phase was dried down also and resuspended in water. A silica-gel TLC plate was loaded with 15 μl of the extracts and chromatographed with chloroform:methanol:water (13:6:1) against standards.
The acceptor substrates tested were β-amyrin-arabinoside, benzoic acid and salicylic acid. The sugars donors tested were D-glucose and L-arabinose.
To confirm the chemical structures of the products visualized by the radioactive assay a non-radioactive LC-MS assay was developed. […] Reactions were stopped by the addition of 100% methanol, which was then evaporated from the reaction at 50 degrees Celsius, and were analysed by LC/MS/MS using reversed-phase chromatography. […]

B1: AsGT2: family 1 glucosyltransferase from Avena strigosa (SEQ ID NO:6), expressed in E. coli and purified (protein, listed as Avena strigosa)
chain: MGAEWEHVSDIHVLLLPYPVQGHINPMLQFGKRLAHIGGVGVRCTLAITPYLLRQCQDPCPGAVHLVEISDGFDSAGFEEVGDVAAYLAGMESAGSRTLDELLRSEAEKGRPIHAVVYDAFLQPWVPRVARLHGAACVSFFTQAAAVNVAYSRRVGKIEEGLPAGFEAEDLPTFLTLPLPYQDMLLSQFVGLDAVDHVLVNSFHELQPQESAYMESTWGAKTVGPTVPSAYLDKRITDDVSYGFHLYTPMTATTKAWLDAQPPRSVTYVSFGSMATPGPTEMAEMAEGLHSSGKAFLWVVRASEASKIPDGFQERVGGRGLVVTWVAQLEVLAHGAIGCFVTHCGWNSTMEALGAGVPMVAVPQWSDQPTNAKFVEDVWCVGVRARRDPEGVVRREELERCIREVTGDDKYACNALDWKEKSKRAMSQGGSSDMNITEFLQALRRSRKSYEAKPIEPLLVGLDA
With B1 the “Activity of AsGT2 towards Salicylate, L-Ara” value was “+”.
